Measured values as given in article PMC7069974.

Target: His-flXPA (human) (UniProt P23025)
Experiment: AFM
Settings: single dG-C8-AAF at 30% from 3' end; EMSA: 8 nM DNA, 20 mM HEPES pH 7.5, 150 mM NaCl, 5 mM DTT, 0.5 mg/ml BSA, 5% glycerol, 25 min at room temperature; gel 5% native, 0.5x TBE, 4 C. AFM: 100 nM …; scale: fold specificity for dG-C8-AAF over non-damaged DNA

His-flXPA (human), sequence (P23025 whole entry): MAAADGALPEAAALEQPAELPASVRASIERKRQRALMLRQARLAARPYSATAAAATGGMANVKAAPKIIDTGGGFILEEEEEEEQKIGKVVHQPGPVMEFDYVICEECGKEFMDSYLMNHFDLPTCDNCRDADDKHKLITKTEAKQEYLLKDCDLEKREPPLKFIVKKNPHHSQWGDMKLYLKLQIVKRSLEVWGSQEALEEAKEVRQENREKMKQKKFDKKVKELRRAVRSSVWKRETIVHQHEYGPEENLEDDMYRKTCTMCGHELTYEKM

Substance: AAF538
- binding signal: 660
